Reference: publication PMC9267027, “Discovery of a New Microbial Origin Cold-Active Neopullulanase Capable for Effective Conversion of Pullulan to Panose” (International Journal of Molecular Sciences, 2022)
Values joined by “and” are separate entries in the source; they are usually repeats but may differ in a detail not shown here. Identical values can stand only once.

Target: the molecule itself
Test: AUC; sedimentation velocity, 50 mM Na2HPO4-NaH2PO4 buffer pH 7.0, 20 °C, 38,000 rpm, absorbance at 280 nm, c(s) model in SEDFIT; oligomeric state

B1: Maltogenic amylase (MAase) ThMA from the Thermus strain (enzyme)
chain: MRKEAIHHRSTDNFAYAYDSETLHLRLQTKKNDVDHVELLFGDPYEWHDGAWQFQTMPMRKTGSDGLFDYWLAEVKPPYRRLRYGFVLRAGGEKLVYTEKGFYHEAPSDDTAYYFCFPFLHRVDLFQAPDWVKDTVWYQIFPERFANGNPAISPKGARPWGSEDPTPTSFFGGDLQGIIDHLDYLADLGITGIYLTPIFRAPSNHKYDTADYFEIDPHFGDKETLKTLVKRCHEKGIRVMLDAVFNHCGYEFAPFQDVLKNGAASRYKDWFHIREFPLQTEPRPNYDTFAFVPHMPKLNTAHPEVKRYLLDVATYWIREFDIDGWRLDVANEIDHQFWREFRQAVKALKPDVYILGEIWHDAMPWLRGDQFDAVMNYPLADAALRFFAKEDMSASEFADRLMHVLHSYPKQVNEAAFNLLGSHDTPRLLTVCGGDVRKVKLLFLFQLTFTGSPCIYYGDEIGMTGGNDPECRKCMVWDPEKQNKELYEHVKQLIALRKQYRALRRGDVAFLTADDEVNHLVYAKTDGNETVMIIINRSNEAAEIPMPIDARGKWLVNLLTGERFAAEAETLCVSLPPYGFVLYAVESW
notes: ThMA, maltogenic amylase of a Thermus strain (AAC15072.1); used as the control in analytical ultracentrifugation; the construct is not described
- stoichiometry N: 2 and 4
